B1: H018-17B5.5.1 (antibody, mouse IgG1, V domains shown)
VH: QVQLQQSGAELMKPGASVKISCKATGYKFSSYWIEWVKQRPGHGLEWIGEILPGSGNPNYDEKFKGKATFTADTSSNTAYMQLSSLTSEDSAVYYCARERWMDSWGQGTSVTVSS
VL: DIQMTQTASSLSASLGDRVTISCSASQGIFNYLNWYQQKPDGTVTVLIYYTSRLHSGVPSRFSGSGSGTDYSLTISNLEPEDIATYYCQQYSKLPYTFGGGTKLEIKR
notes: Mouse hybridoma antibody purified from supernatant
B2: H017-6F11.3.2 (antibody, mouse IgG2b, V domains shown)
VH: EVQLQQSGAELVKPGASVKLSCTASGFNIKDTYIHWMRQRPEQGLEWIGRIDPANDNTKYDPKFQGKATVTADTSSNTAYLQLSSLTSEDTAVYYCARGLRLRYFDVWGAGTTVTVSS
VL: DIQMTQTPSSLSASLGGKVTITCKASQDIHKYIAWYQHKPGKGPRLLIHYTSTLQPGIPSRFSGSGSGRDFSFSISNLEPEDFETYYCLQYENLLPTFGGGTKLEIK
notes: as for B1
B3: H017-9C10.2.8 (antibody, mouse IgG1, V domains shown)
VH: QVQLKQSGFGLVLPSQSLSITCTVSGFSLTSYGVHWVRQSPGKGLEWLGLIWSGGGTDYNAAFISRLSISKDNSKSQVFFKINSLQANDTAIYYCARQLGLRAMDYWGQGTSVTVSS
VL: DILLTQSPAILSVSPGERVSFSCRASQSIGTTIHWYQQRTNGSPRLLIKYASESVSGIPSRFSGSGSGTDFTLSINSVESEDIADYYCQQSNSWPLTFGAGTKLEIK
notes: as for B1

Target: T1, PDL1-hFc (human, UniProt Q9NZQ7 19-238, limits assumed)
T1 construct: Coating antigen of the ELISA on human PD-L1 and of the T cell proliferation assay; also called humanPDL-1; 人PDL-1; not shown: human Fc (hFc)
Experiment: ELISA, PDL1-hFc coated 1 ug/ml, antibody titrated, HRP secondary

T1 sequence (Q9NZQ7 19-238 limits assumed): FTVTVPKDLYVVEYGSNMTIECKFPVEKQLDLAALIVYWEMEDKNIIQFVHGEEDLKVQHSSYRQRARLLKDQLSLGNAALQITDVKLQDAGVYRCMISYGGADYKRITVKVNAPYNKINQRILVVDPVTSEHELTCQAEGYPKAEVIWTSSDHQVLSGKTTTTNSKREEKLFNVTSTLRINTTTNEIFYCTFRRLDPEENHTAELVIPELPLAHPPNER

Row | EC50 [nM] | Binder
1 | 0.133 | B1
2 | 0.049 | B2
3 | 0.079 | B3

Target: T2, MonkeyPDL1-his (monkey)
T2 construct: Coating antigen of the ELISA on monkey PD-L1; also called 猴PDL-1
Experiment: ELISA, MonkeyPDL1-his coated 1 ug/ml, antibody titrated, HRP secondary

Row | EC50 [nM] | Binder
4 | 0.7 | B1
5 | 0.123 | B2
6 | 0.191 | B3
